From patent US20090155853A1

Molecular target: human coxsackie virus B adenovirus receptor (CAR) expressed on CHO cells (CHO-hCAR) (human) (UniProt P78310)
Assay: cell-based or functional assay

Chain of UniProt P78310 (P78310 20-365): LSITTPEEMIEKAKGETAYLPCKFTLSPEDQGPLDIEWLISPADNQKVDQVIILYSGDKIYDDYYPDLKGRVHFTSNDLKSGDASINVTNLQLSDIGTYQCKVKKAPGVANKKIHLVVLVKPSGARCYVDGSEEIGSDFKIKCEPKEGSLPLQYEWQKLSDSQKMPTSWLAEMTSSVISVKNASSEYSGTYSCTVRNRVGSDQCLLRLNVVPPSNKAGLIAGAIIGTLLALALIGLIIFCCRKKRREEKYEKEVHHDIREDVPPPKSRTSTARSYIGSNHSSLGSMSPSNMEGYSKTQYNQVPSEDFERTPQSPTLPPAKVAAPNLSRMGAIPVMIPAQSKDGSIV

HMG-PB/Fiber complex (HMG-PB plus Fiber protein) (from UniProt P12538 1-571; P11818 1-581)
luciferase reporter plasmid delivery (luciferase gene expression) in CHO-hCAR against parental CHO cells: 6 times
